# Source: the DeepSol protein solubility set
# Experiment: soluble on expression in E. coli; label from the status in PepcDB or PDB records
row,Sequence,soluble on expression in E. coli
1,MAHHHHHHMGTLEAGQQGPGSMSKLTVVASPLAPEAVGAYSQAIICNGMVYCSGQIGLDRKTGDFAGKTIEEQSKQVMTNLKYVLEEAGSSMDKVVKTTCLLADIKDFGVFNGIYAEAFGNHKPARACFAAAALPKGALVEVECIATL,soluble
2,MAHHHHHHMGTLEAQTQGPGSMKQPTAVIFDWYNTLIDTSINIDRTTFYQVLDQMGYKNIDLDSIPNSTIPKYLITLLGKRWKEATILYENSLEKSQKSDNFMLNDGAIELLDTLKENNITMAIVSNKNGERLRSEIHHKNLTHYFDSIIGSGDTGTIKPSPEPVLAALTNINIEPSKEVFFIGDSISDIQSAIEAGCLPIKYGSTNIIKDILSFKNFYDIRNFICQLINI,soluble
3,MAHHHHHHMGTLEAQTQGPGSMNVLVIGSGGREHSMLHHIRKSTLLNKLFIAPGREGMSGLADIIDIDINSTIEVIQVCKKEKIELVVIGPETPLMNGLSDALTEEGILVFGPSKAAARLESSKGFTKELCMRYGIPTAKYGYFVDTNSAYKFIDKHKLPLVVKADGLAQGKGTVICHTHEEAYNAVDAMLVHHKFGEAGCAIIIEEFLEGKEISFFTLVDGSNPVILGVAQDYKTIGDNNKGPNTGGMGSYSKPNIITQEMEHIIIQKIIYPTIKAMFNMNIQFRGLLFAGIIIKKNEPKLLEYNVRFGDPETQSILPRLNSDFLKLLSLTAKGKLGNESVELSKKAALCVVVASRGYPGEYKKNSIINGIENIEKLPNVQLLHAGTRREGNNWVSDSGRVINVVAQGENLASAKHQAYAALDLLDWPDGIYRYDIGSCAL,soluble
4,MAHHHHHHMGVGFQSKKLQNFCHSGAGEMCALENCIPRWGSFPCNAPGLTPVYELSSFENVELPLIFQKSNIGDLLASTSDSVGQLNGFQARHSNTEGIKSQVSYTSVALSTTNRENLFGWVDCAALPLCSSSTAGASILLVTLLTRESRGKSCMCILDDLVCQLSNGPFNWGCGGDCHDLISISLPSEPRNHAACPIILPIAKLSRKEIWLREAAPKMDVETIIYEGDNQQHLVDDVANGTNAGSCAVMEAGCRPETALGPENVKYGDNESVTQCEVTVDITPSTEPSARCLHFSECTTPVSSNRSFMEPIPLSNMESKALRCRKFDGTSYEVLRRRAHSDALSLILKKYSEHLERVSQTSGRRGLDAHC,soluble
5,MAHHHHHHMHLKECPPASSVGWLRPSLTIYMFGSKSLALSSAVFVLDCFTMGRKQRLLSAVVNVPLTLRLMLYFSASYKGEEPRLPPSTCVLGSSQGNNFLLLPGAFAESGCTTFFPGREGLMSELQDELWLQLPSRLLILARLDLANFLFAVVGRLPNSGINLFQQRPPSSLAVLPKRCMGMTLVALTTL,not soluble
6,MAHHHHHHMHRNIHGGTASATIANSALVSPPPHTTIPPLPAGMDPTYYALSLLRRRRLEECIAVSTQYLAVFNEKMRLTSSGTQKQADGVDEPLWFIQTRALITQDWFDELDVDNDGVDEVLLDGEQNISSTAHRPGTSLQRKDAPTGTTIPTGMAQRQGTARPISSRYGYVRPGTQSRNRPGTMSIRPITSRMMRIGTASLQAVPGGPHIDVRKLNLEKYGRTKPIVARILCDFLLHVEHRPRMVLELGAIALEQQPKDWWWMSRMGQAYYRLGLLREAERMFKAALTIQENVADVMRLARVFTKMDQPLKALDLLSEASKKNPMDHHLLLHMARLYDQLQDAEKSCQLYRRVLQLDSSNMESIACIAAYMFYEKKQPEIALRLYRRLLQMGVQTTELWNNLGLCCFYSSQYDIALSCLQRAVAISTEDETLADVWYNIGHIGIGTGDLGLAHRAFKVALGANPRHAEALNNLAVLNLNIGQVDQAMNDLAMAIEVSPEQHEPLYNFALLAFKAGNFEKSYKLLTQALEACPDHPESALLQATLRKSLATL,not soluble
7,MAHHHHHHMHRSLLRCALPGEPMLESYRSGVLRCLRCHLGAMRPDFPVGSAATEVAALASTATTPLTCSRRAFRQQGAAHPNTPDATEAAELEKDWQALKTYGMIGGFALLCVATLWYGSRQAKQRYFGAEGSARVSVETRGRPALGGPFVLVNTKGEPVSQAEFLGSWAFFYFGFTHCPEICPVELNRMSHVVDAVRAARPQERIAPLFVSCDPRRDSLEAIDEYLSVFHPDFIGLVGTPKQVNDACRSYRIYYSIPTDEDAAQEDYLIDHSIAIFLFDPQGRFVDFFGNRYDEREITEKVLHYMSEYAKDPTWTNW,not soluble
8,MAHHHHHHMHSAIRFSGSSSRSTSSSMEVASAAAEPPLSVSSIPRRRSADRDDALSLLEPAVRLPTSTTSKASALSQSSLRSGSHPSAAVYGDNPGSAHTASSSYTRKGDNGDALLHQPPGNPQTRVPSSFAATVNTRASEASSHSARGRAGSSRRDNLDPAAPQSRTATQPPLTHPGSVFANIPWIPPPPIYGTPLPDSSNMNRHYAYYYDPRGATLRAPFCYPDEVPLRAQEHHSDVSGAEWPKPSDLPLPSVFPMPPHVLPQLSLPAVSAPTAEAAARGMVAAPHAWAIPPPVLYPPPPPPPWWFYGTHPLPLPASSSGSSASSTGSSRHASSSSPVSARSTTRPSRHPSANAARPHAEAAAPSRHGVAVPAGSVETPVAAASRGDAGGGHAAKKPSVASSGSRYAAGHTVGTGRAARRSMGSLSASSATTSPWSATTTTAHSDLPQRVERRVYASSGSGSSEMQRSATGQTVQVAPRRTNVAQCVPPDQLQVYGDDVVQERGYSSVMTRMKHAVSAAEAYLEKMEHLYRRLRSRYEEVVMSPGKVTRYGADITADEGVEEKRHRRTAPAATTRATRGPPEKGLLHPPERPFSRQTHLQPTAPLPHAERPVSPALSAAQPSAVEPSPPLSSSSSATSATSLRRELHLLESQWQRLEELKRHGGGGTTTAVSMPAALSPSTATSTAGEDPFTNRRFLQLIKDRKHLLTSAT,not soluble
9,MAHHHHHHMHVSSAAYTRAYEWQRALNSCTGDFSSSLARCLPLRALCRRPNNVPRTLTHTSKHPHPLLLSHPRLPLSHAARTRAPPPSRCSRSTLMSVPYEEKAFPPL,not soluble
10,MAHHHHHHMITDLLFKSQIIYNKKDILCARYILFYQHICKRGYKEAAPKVFNKKSSHTSRWIQRQISDRYVLRAKNDNYRSRAAYKLIELDNKYLFLKKNKIILDIGCYPGSWCQVILERTKNYKNKIIGIDKKIMDPIPNVYFIQGEIGKDNMNNIKNINYIDNMNNNSVDYKLKEILQDKKIDIILSDAAVPCIGNKIDDHLNSCELTLSITHFMEQYINIGGTYIVKMYLGSQTNNLKTYLKGMFQLVHTTKPKASRNESREIYLVCKNFLGRKKITEDVQIKGSFSSKEGYY,not soluble
11,MAHHHHHHMIVLLRKNNLKNTLRLFPLGCNNKLVFMRGYINEQTKGPIEKKTTDNNEKMLLNKTLEDVKVSKENSCNALFDECLEELYRMKKKVDKESVEYDNSPIIEELNREELKITRNIFERINKKKKHVSNLSYKDIYIDPYWNPFKDVDNLKQEILYEFNEYSKMASIVELKKQRRAIKKSLKEQYKLYNPYSEEYNKHFNLNMDNDVKEQQMECHDKDEKYWNPSFNKRKILNIKSPFIWRYTHLLHHFIGENGLILPRKINMTTRKQQIQIFKSICIARRMALYPYDKKPEKDDLIPLMDPLQFLLDELIHRYIQLNDLRAQAIIKVMINRYPSLNYYKYFFYESKKEKDKNEKTAQNEQEENVSEKKEPFSQMLQKYKKNYYENFYKY,not soluble
12,MAHHHHHHMKGHIFYDVTEKGTPPAEYFVSSTGWGMSVVSPPNVGNCDEWETQVKAERIIVNCPDEMDVKAMCAWMERDGTTDGQAECWKMVEERMDKVGPIPRHIFDANKFVAHSAAIEDALDGINSRDGERHFTHRGVRLWYSGDPPQKVVSVVRARGEFGAGGFLNAAISVCLGRRIAHYFGGRDE,not soluble
13,MAHHHHHHMKKKNNNKLHYLDSKGKLYTSGLRSDTKEKYGEIPSSNKNHNLIEKYNELQSLLSKEEEKYDFVKNELGDLQKQKDLLKWHLCNNIKKLSMKRSDYKFKTETKSKLESKLKSLKDMNKIHKFEHDTLEELVHKMEQELETKMYIKNDIENIFNECINKKDEYLKDITQERISVFKERKKRQNQLQKLLLIMKQENNKNYNINYLKKYESNLMNEINSYKNYKDFETKIAMDLIDDHSLNDLYVT,not soluble
14,MAHHHHHHMKQECNVCYFNLPDPESTLGPYDNELNYFTWGPGFEYEPEPQRKPLSIEESFENSEESEESVADIQQLEEKVDESDVRIYFNEKSSGGKISIDNASYNARKLGLAPSSIDEKKIKELYGDNLTYEQYLEYLSICVHDKDNVEELIKMFAHFDNNCTGYLTKSQMKNILTTWGDALTDQEAIDALNAFSSEDNIDYKLFCEDILQ,soluble
15,MAHHHHHHMKRDRDDSVVGTPNGKWDVSPHGTLGVEAKEFERNAVRRYVFGLVHLKNEGPKANAVDVSESIVRSFNERFRRIVKIGQGSFGEVYIVFDTVTQTHLTMKRMQLLRGAGRRVMGLCNTTSREMNLLRVLKHVNIVELFDYHVVPDGTLIMLMPVIAYDLVSLIRLWRNGGPRGEPSAGRMPLPTIKCIFRQLLTGLAYLHKERVIHRDLKPTNVMINEKGVVKIIDFGWARFCPARWRGPMTGPPCPVAYRPPEVLLGGEHAVNYDASVDLWCCGCILFEMLSGGKMFINARSEAEAVAGITDWLGSPSSKSTLYYGHSAASLIRFKQNRPSRLAHRCELLHIDRDSVDMLDKMLQLEPKWRMPAEELLRHRWFSSAPVACEPHEISLPEHNMYRWLDSKRPS,soluble
16,MAHHHHHHMKSHNLDLIKNQNFDKNHNFINYSELYKKYKEKYNVKSFNKLPVSTYTYPRYSKITNFDELKTELIYEKEINEIEEEYDDDDEQNNINNYDGNIEILFPMINEKENEDIKKKKTDNIYKSEKKSLRQRIYDGEVMFYEDYIEQLAVKDYEHFFKKPYEIKRKDEGGKNYFYGKKLEMNKEEDIYRKFYGFDDAYFLNKLQLKNKSPQKEKNKEEKQKKRNEEKILERQCGKKLSYEDKKFILNIIEENQLQDNSIYKYYMQNKCIFDKNLPEFKKKELLCGYIPDIILPANVRKVKHPKNCGVPLSSLHIYAQFIHELFKCPYIYNAIDVELGKYWKTNENELLNIMKSEKIKKGYKKDIYTATKEQLEKSSAKLKNLLKNDEVSDDTRKKFTINFKMPKKEKTNLVVSKGRYII,soluble
17,MAHHHHHHMLFVDLLNGVNVNYKRKVPICKRPTRSAEYLSNQPLHANRNVEQTSSKNGEASITNHEDEKDENILQQYIYTLSHLTIFDVDRDKSTPLNIALLLKACLASHNYIKNVEIFTSNVKNKEICSFIYERRNDFDAFFKLHVMKYIDFFGNPQIVETLKSSVDNKEMYQRELEIFNQIDGETKLRKDLLEDILFECTRLNKIIQYSLAVNNFNLFSPTVLLKLFTYFKHYGVYYSIFLNNIKKVKYYYQTKDIREEDKRKIEKIVDHYLLTLDRFNHMYEAGHVTL,not soluble
18,MAHHHHHHMLGKLGLRTEAYPFDFSRVTLDGLMHFIRNGFAEGFYPPGPLPYRPECVGPWVLFRGQHTAFAHFDLNDPHVQAHFQVKMRRFDAVLNSPERPVTFFRTVTARYPQQELALALDLEEAVARRNPSLDFRIVFMVHDQGLRANAVQLAPLSPRVTLWTLQYRGLPGDTLFDRTHTAYRTVMMHSVAESNWPAVNVGVATPPPATVAPAEARDFESGALRCDGAIRTDDVPLSDLTVDRFPWRSHDNLALIDGVASVGGTCAGIGSTKMLEDASAALQVEGRVRRKCRYCGDATYHAAGRPFRTERPFTDEEDQLVLIHLYQILTGGDKVAAVEKLAHEMRRGTYEVICRIQYLTNSSTKLMDSIDPASPSDS,not soluble
19,MAHHHHHHMLLLLFRPVYQCTVALLCRSLPAYHPCLLSTDSPPPFFTVFCHLDDALHAMRRRSCSLRRLEVHTKRRAHAIMAELANPNPTVFEPTHDPLKGRTDAERAAEDDEDTEDPIDAWEVFEMIRRIRDPEHPNSLEQLKVVEPSLITVDWKKRHIRVLFTPTVPHCSLTTLIGLSIRLQLERSLPEYTKVDIYVTPGTHEQEAQVNKQLNDKERVAAALENRNLLNVVESCINEFDE,not soluble
